The term Kd denotes a measure of binding affinity in units of concentration. By stoichiometry N is commonly meant the number of molecules, sites or subunits per partner or assembly.

The results in this text go back to paper PMC8668187.

Where “and” joins values, the source holds several entries; their conditions need not be identical. Equal values may be shown once.

In experiment [1] the target is CsGSIb EVK138DIQ mutant (Camellia sinensis).
Experiment [2] shares this target. Kind of experiment: SEC-MALS; Superdex 200 10/300 GL with MALS and QELS; 50 mM KPi pH 7.0, 100 mM NaCl, 1 mM β-mercaptoethanol, 0.05 % NaN3; room temperature (~23 °C); self-association of the GS. (In gel filtration, larger molecules generally elute earlier.)
Experiment [3] shares this target. Nature of the experiment: AUC; sedimentation velocity, 0.1/0.25/0.5 mg/mL, 50 mM Tris-HCl pH 7.4, 100 mM NaCl, 1.5 mM β-mercaptoethanol, rotor at 20 °C (results: room temperature); global fit; decamer to two pentamers.
Experiment [4] deals with glutamine synthetase GmGSβ2 from Glycine max (Glycine max). Kind of experiment: SEC-MALS; Superdex 200 10/300 GL with MALS and QELS; 50 mM KPi pH 7.0, 100 mM NaCl, 1 mM β-mercaptoethanol, 0.05 % NaN3; room temperature (~23 °C); self-association of the GS.
Experiment [5] has as its target CsGSIb I143L mutant (Camellia sinensis).
Experiment [6] shares this target. Nature of the experiment: SEC-MALS; Superdex 200 10/300 GL with MALS and QELS; 50 mM KPi pH 7.0, 100 mM NaCl, 1 mM β-mercaptoethanol, 0.05 % NaN3; room temperature (~23 °C); self-association of the GS.
Experiment [7] shares this target. Nature of the experiment: AUC; sedimentation velocity, 0.1/0.25/0.5 mg/mL, 50 mM Tris-HCl pH 7.4, 100 mM NaCl, 1.5 mM β-mercaptoethanol, rotor at 20 °C (results: room temperature); global fit; decamer to two pentamers.
Experiment [8] deals with glutamine synthetase CsGSIb from Camellia sinensis, wild type (Camellia sinensis).
For experiment [9] the target is unchanged. Kind of experiment: SEC-MALS; Superdex 200 10/300 GL with MALS and QELS; 50 mM KPi pH 7.0, 100 mM NaCl, 1 mM β-mercaptoethanol, 0.05 % NaN3; room temperature (~23 °C); self-association of the GS.
The target is the same in experiment [10]. Kind of experiment: AUC; sedimentation velocity, 0.1/0.25/0.5 mg/mL, 50 mM Tris-HCl pH 7.4, 100 mM NaCl, 1.5 mM β-mercaptoethanol, rotor at 20 °C (results: room temperature); global fit; decamer to two pentamers.

Turning to CsGSIb EVK138DIQ mutant (enzyme), the glutamine synthetase activity, increase over wild-type CsGSIb (1 μM monomer enzyme, 30 min, 37 °C) in experiment [1] was found to be 64 fold. Besides, the fraction decameric in experiment [2] worked out at 72%. The same substance registered a Kd in [3] of 40 nM.

The substance “glutamine synthetase GmGSβ2 from Glycine max (enzyme)” gave a stoichiometry N in experiment [4] of 10.

Consider CsGSIb I143L mutant (enzyme), for which, in [5], the glutamine synthetase activity, increase over wild-type CsGSIb (1 μM monomer enzyme, 30 min, 37 °C) worked out at 76 fold. Further, in experiment [6], the fraction decameric was > 95%. The substance further returned a Kd in experiment [7] of 10 nM.

Substance “glutamine synthetase CsGSIb from Camellia sinensis, wild type (enzyme)” had a glutamine synthetase activity on raising the CsGSIb concentration from 1 μM to 5 μM (monomer) in experiment [8] of 30 fold. For the same substance, in [9], the fraction decameric was 18%; the fraction pentameric worked out at 82%; the stoichiometry N was 5 and 10. Further, in experiment [10], the Kd stood at 270 nM; the stoichiometry N is 10 and 5.
